Measurements: patent US11260115B1, “Peptides and combination of peptides for use in immunotherapy against CLL and other cancers” (immatics biotechnologies GmbH, priority 2015, dated 2022)

Biological target: HLA-A*02:01 (Homo sapiens, UniProt P04439, D140Y/D185E/D98H/E176V/E277Q/G131W/G231S/I119V/I121R/I166T/I218V/L300P/L318F/N151K/N90K/P208A/P217A/Q86G/Q94H/R138H/R169H/T345S)
Experiment: MHC binding assay (UV-ligand exchange, β2m ELISA, peptide exchange yield)
Details: binding to HLA-A*02:01
In short: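 Peptide-HLA-A*02:01 complexes formed by UV-mediated exchange of a photocleavable ligand; exchange yield measured by streptavidin-capture ELISA detecting β2m with HRP anti-β2m, TMB read at 450 nm. Refolded monomer standards 15-500 ng/ml; samples diluted 100-fold.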

Row | Substance | Peptide Exchange (MHC class I binding score, peptide exchange yield)
1 | 250 (LLVQEPDGLMV; listed as Homo sapiens) [compound 250] | “+++” (>50 = +++)
2 | 317 (NLLAHIWAL; listed as Homo sapiens) [compound 317] | “+++” (>50 = +++)
3 | 49 (FLTDLFAQL; listed as Homo sapiens) [compound 49] | “++++” (>75% = ++++)
4 | 211 (LIDVKPLGV; listed as Homo sapiens) [compound 211] | “+++” (>50 = +++)
5 | 99 (ILIFHSVAL; listed as Homo sapiens) [compound 99] | “+++” (>50 = +++)
6 | 355 (FIWPMLIHI; listed as Homo sapiens) [compound 355] | “+++” (>50 = +++)
7 | 350 (ALEDRVWEL; listed as Homo sapiens) [compound 350] | “+++” (>50 = +++)
8 | 14 (ALLRLLPGL; listed as Homo sapiens) [compound 14] | “+++” (>50 = +++)
9 | 42 (FLEEGGVVTV; listed as Homo sapiens) [compound 42] | “+++” (>50 = +++)
10 | 79 (GLQAKIQEA; listed as Homo sapiens) [compound 79] | “+++” (>50 = +++)
11 | 20 (ALVDPGPDFVV; listed as Homo sapiens) [compound 20] | “+++” (>50 = +++)
12 | 30 (ELLEGSEIYL; listed as Homo sapiens) [compound 30] | “+++” (>50 = +++)
13 | 188 (VMGDIPAAV; listed as Homo sapiens) [compound 188] | “++” (>20% = ++)
14 | 222 (ALWELSLKI; listed as Homo sapiens) [compound 222] | “+++” (>50 = +++)
15 | 376 (VLYNQRVEEI; listed as Homo sapiens) [compound 376] | “+++” (>50 = +++)
16 | 299 (ILEENIPVL; listed as Homo sapiens) [compound 299] | “+++” (>50 = +++)
17 | 76 (GLLRIIPYL; listed as Homo sapiens) [compound 76] | “+++” (>50 = +++)
18 | 184 (VLSHNLYTV; listed as Homo sapiens) [compound 184] | “+++” (>50 = +++)
19 | 203 (ALLSSQLAL; listed as Homo sapiens) [compound 203] | “+++” (>50 = +++)
20 | 344 (VLAFENPQV; listed as Homo sapiens) [compound 344] | “+++” (>50 = +++)
21 | 306 (VVAEELENV; listed as Homo sapiens) [compound 306] | “++” (>20% = ++)
22 | 35 (FILPSSLYL; listed as Homo sapiens) [compound 35] | “+++” (>50 = +++)
23 | 227 (FLAEASVMTQL; listed as Homo sapiens) [compound 227] | “+++” (>50 = +++)

Row | Substance | Peptide Exchange (MHC class I binding score, peptide exchange yield)
24 | 157 (SLNIRDFTM; listed as Homo sapiens) [compound 157] | “+++” (>50 = +++)
25 | 304 (LAIVPVNTL; listed as Homo sapiens) [compound 304] | “+” (>10% = +)
26 | 119 (VLPAEFFEV; listed as Homo sapiens) [compound 119] | “+++” (>50 = +++)
27 | 260 (SLDDVEGMSV; listed as Homo sapiens) [compound 260] | “+++” (>50 = +++)
28 | 268 (TLLQVFHLL; listed as Homo sapiens) [compound 268] | “+++” (>50 = +++)
29 | 275 (VLLFIEHSV; listed as Homo sapiens) [compound 275] | “+++” (>50 = +++)
30 | 179 (VLLGLEMTL; listed as Homo sapiens) [compound 179] | “+++” (>50 = +++)
31 | 284 (LLSAAEPVPA; listed as Homo sapiens) [compound 284] | “++” (>20% = ++)
32 | 168 (YLLDQSFVM; listed as Homo sapiens) [compound 168] | “++++” (>75% = ++++)
33 | 137 (NLIKTVIKL; listed as Homo sapiens) [compound 137] | “+++” (>50 = +++)
34 | 181 (VLLSIPFVSV; listed as Homo sapiens) [compound 181] | “+++” (>50 = +++)
35 | 359 (FMQDPMEVFV; listed as Homo sapiens) [compound 359] | “+++” (>50 = +++)
36 | 286 (FLLEDLSQKL; listed as Homo sapiens) [compound 286] | “+++” (>50 = +++)
37 | 231 (FLYIRQLAI; listed as Homo sapiens) [compound 231] | “+++” (>50 = +++)
38 | 136 (NLDKLWTLV; listed as Homo sapiens) [compound 136] | “++” (>20% = ++)
39 | 60 (FVLDHEDGLNL; listed as Homo sapiens) [compound 60] | “+++” (>50 = +++)
40 | 384 (YMIGSEVGNYL; listed as Homo sapiens) [compound 384] | “++++” (>75% = ++++)
41 | 48 (FLSPQQPPLL; listed as Homo sapiens) [compound 48] | “+++” (>50 = +++)
42 | 279 (YMAPEVVEA; listed as Homo sapiens) [compound 279] | “+++” (>50 = +++)
43 | 318 (NLQVTQPTV; listed as Homo sapiens) [compound 318] | “+++” (>50 = +++)
44 | 47 (FLSDQPEPYL; listed as Homo sapiens) [compound 47] | “++” (>20% = ++)
45 | 116 (LLIGATMQV; listed as Homo sapiens) [compound 116] | “+++” (>50 = +++)
46 | 326 (VLAFLVHEL; listed as Homo sapiens) [compound 326] | “++++” (>75% = ++++)

Row | Substance | Peptide Exchange (MHC class I binding score, peptide exchange yield)
47 | 113 (KVPAEEVLVAV; listed as Homo sapiens) [compound 113] | “+++” (>50 = +++)
48 | 207 (IIADLDTTIMFA; listed as Homo sapiens) [compound 207] | “+++” (>50 = +++)
49 | 78 (GLPSFLTEV; listed as Homo sapiens) [compound 78] | “+++” (>50 = +++)
50 | 215 (VMQDIVYKL; listed as Homo sapiens) [compound 215] | “+++” (>50 = +++)
51 | 4 (VIAELPPKVSV; listed as Homo sapiens) [compound 4] | “+++” (>50 = +++)
52 | 111 (KLWNVAAPLYL; listed as Homo sapiens) [compound 111] | “+++” (>50 = +++)
53 | 89 (ILDFGTFQL; listed as Homo sapiens) [compound 89] | “+++” (>50 = +++)
54 | 59 (FVFGDENGTVSL; listed as Homo sapiens) [compound 59] | “+++” (>50 = +++)
55 | 338 (FLDMTNWNL; listed as Homo sapiens) [compound 338] | “++++” (>75% = ++++)
56 | 183 (VLMPTVYQQGV; listed as Homo sapiens) [compound 183] | “+++” (>50 = +++)
57 | 174 (VLAELPIIVV; listed as Homo sapiens) [compound 174] | “+++” (>50 = +++)
58 | 329 (VLMDGSVKL; listed as Homo sapiens) [compound 329] | “++++” (>75% = ++++)
59 | 216 (WLAGDVPAA; listed as Homo sapiens) [compound 216] | “+++” (>50 = +++)
60 | 233 (GIIDINVRL; listed as Homo sapiens) [compound 233] | “++” (>20% = ++)
61 | 15 (ALPEVSVEA; listed as Homo sapiens) [compound 15] | “+++” (>50 = +++)
62 | 182 (VLLSVPGPPV; listed as Homo sapiens) [compound 182] | “+++” (>50 = +++)
63 | 311 (LLVDVEPKV; listed as Homo sapiens) [compound 311] | “+++” (>50 = +++)
64 | 283 (ILQPMDIHV; listed as Homo sapiens) [compound 283] | “+++” (>50 = +++)
65 | 303 (ILSQPTPSL; listed as Homo sapiens) [compound 303] | “+++” (>50 = +++)
66 | 23 (ALYLTEVFL; listed as Homo sapiens) [compound 23] | “++++” (>75% = ++++)
67 | 66 (SLAGGLDDMKA; listed as Homo sapiens) [compound 66] | “+++” (>50 = +++)
